In publication PMC3250484, “Molecular Networks in FGF Signaling: Flotillin-1 and Cbl-Associated Protein Compete for the Binding to Fibroblast Growth Factor Receptor Substrate 2” (PLoS ONE, 2012):

T1: FRS2-His (UniProt Q8WU20 1-508)
T1 construct: called one of the 'FL proteins' in the results; The vector pSCherry2 (Eurogentec) may add a Cherry carrier besides the His tag (surmise); also called His-tagged FRS2; purified FRS2-His; source: E. coli SE1, purified (Ni-NTA, dialysis)
T1 sequence (looked up): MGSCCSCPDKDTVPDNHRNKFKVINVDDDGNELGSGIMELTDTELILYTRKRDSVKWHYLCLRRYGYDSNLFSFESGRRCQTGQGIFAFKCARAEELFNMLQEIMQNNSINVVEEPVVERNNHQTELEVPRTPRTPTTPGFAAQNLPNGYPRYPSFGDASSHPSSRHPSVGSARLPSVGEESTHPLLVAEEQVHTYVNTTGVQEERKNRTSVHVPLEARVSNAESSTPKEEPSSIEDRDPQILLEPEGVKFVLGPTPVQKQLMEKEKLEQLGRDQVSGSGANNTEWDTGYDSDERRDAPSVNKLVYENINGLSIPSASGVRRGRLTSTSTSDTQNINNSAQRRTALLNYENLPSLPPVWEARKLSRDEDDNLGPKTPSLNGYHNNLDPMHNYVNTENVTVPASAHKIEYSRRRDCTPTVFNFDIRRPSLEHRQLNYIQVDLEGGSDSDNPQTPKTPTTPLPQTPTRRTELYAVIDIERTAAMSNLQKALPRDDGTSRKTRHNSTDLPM

T2: FL Flot-1-GST (Rattus norvegicus (Rat), UniProt Q9Z1E1-1)
T2 chain: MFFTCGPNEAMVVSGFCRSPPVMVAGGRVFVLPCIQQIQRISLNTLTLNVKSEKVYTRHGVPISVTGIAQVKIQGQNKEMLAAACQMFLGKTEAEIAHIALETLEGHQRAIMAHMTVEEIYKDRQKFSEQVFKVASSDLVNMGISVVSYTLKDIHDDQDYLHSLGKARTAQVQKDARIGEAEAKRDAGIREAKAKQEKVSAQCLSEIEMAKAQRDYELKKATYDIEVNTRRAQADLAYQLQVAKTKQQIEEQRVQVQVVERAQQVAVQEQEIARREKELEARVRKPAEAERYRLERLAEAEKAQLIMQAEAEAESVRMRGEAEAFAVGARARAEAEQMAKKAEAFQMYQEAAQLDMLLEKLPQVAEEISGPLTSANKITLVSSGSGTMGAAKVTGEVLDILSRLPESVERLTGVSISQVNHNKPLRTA

T3: Flot-1-CT-GST (Rattus norvegicus (Rat), UniProt Q9Z1E1)
T3 chain: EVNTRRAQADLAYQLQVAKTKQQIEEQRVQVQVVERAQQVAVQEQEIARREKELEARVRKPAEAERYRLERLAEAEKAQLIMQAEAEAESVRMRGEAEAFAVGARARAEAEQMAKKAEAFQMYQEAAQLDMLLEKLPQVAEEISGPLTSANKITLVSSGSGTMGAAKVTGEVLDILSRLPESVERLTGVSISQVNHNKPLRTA

B1: FL Flot-1-GST (natural protein, rat, UniProt Q9Z1E1-1 1-428, looked up)
chain: T2 chain
notes: Rat flotillin-1 in pET41a, full length; pET41a adds further N-terminal tags besides GST (surmise from the vector); also called flot-1-FL-GST
B2: FRS2-His (protein)
chain: T1 sequence (looked up)

Assays:
FRS2-His = biological target: T1, FRS2-His; assay: pull-down; GST fusion immobilised on sepharose beads, purified FRS2-His in solution; 5 µg of the purified proteins, on ice 3 h; wash 50 mM Tris-HCl pH 7.5, 150 mM NaCl, 1 mM EDTA, 1 mM DTT, 0.01% Triton X-100; anti-His blot; settings: both partners purified
FL Flot-1-GST = biological target: T2, FL Flot-1-GST; assay: GST pulldown
Flot-1-CT-GST = biological target: T3, Flot-1-CT-GST; assay: GST pulldown

Binder | binding result (FRS2-His) | binding result (FL Flot-1-GST) | binding result (Flot-1-CT-GST)
B1 | binds | – | –
B2 | – | binds | binds
